Data as given in paper PMC7041945, “Misfolded proteins bind and activate death receptor 5 to trigger apoptosis during unresolved endoplasmic reticulum stress” (eLife, 2020).

Columns and labels:
Assay type in all cases: cell-based, Homo sapiens
[1] = system: GADD34 mRNA in HCT116 cells; assay: qPCR of GADD34 transcript; settings: norm to GAPDH
[2] = system: caspase 8 in HCT116 fractions; assay: Caspase 8 activity of subcellular (iodixanol gradient) fractions; settings: cells expressing MPZ-GFP; first and second ERGIC-associated fractions
Description: This subcellular fractionation protocol was adapted from [Xu et al. (2015)].
Cells transfected with MPZ-GFP were harvested from a 15 cm dish as described in the Size Exclusion Chromatography section above. The cell pellet was resuspended in 400 μl of homogenization buffer (10 mM triethanolamine-acetic acid, pH 7.4, 0.25 M sucrose, 1 mM sodium EDTA, protease inhibitor cocktail (Roche)) and lysed via mechanical shearing through a 25-gauge needle on a 1 ml syringe with 13 passes. (Note on protease inhibitor: 4x protease inhibitor was used to lyse samples used for Western blotting to minimize degradation of proteins, while 1x protease inhibitor was used in sample lysis for caspase glo 8 assay so that excess inhibitor would not interfere with cleavage of luminescent substrate.) Homogenized sample was then centrifuged at 2000xg for 15 min at 4°C to remove unlysed cells and the nuclear fraction. […]
Fractions from samples lysed with 4x protease inhibitor were subjected to TCA precipitation to concentrate protein content for immunoblotting. Fractions from samples lysed with 1x protease inhibitor were used for the caspase glo 8 assay (10 μl of each fraction + 10 μl of the caspase glo 8 reagent (Promega #PRG8200) incubated for 45 min at RT prior to measuring luminescence).

[3] = system: XBP1 mRNA in HCT116 cells; assay: RT-PCR for Xbp1 mRNA splicing; settings: HCT116, 24 hr
Description: Cells were grown in 6-well plates and harvested with 0.5 ml of TRIzol reagent (Life Technologies) per manufacturer's protocol to extract RNA. […] The reverse transcription product was diluted to 200 μl with 10 mM Tris-HCl pH 8.2 and used at 1:100 dilution for subsequent RT-PCR reactions. 2 μl of cDNA was added to 0.2 μM of forward and reverse primers ([…]; Hs_XBP1_Rev: [NT]), 0.2 mM of each dNTP, 0.5 units of Taq DNA polymerase (Thermo Scientific). The reaction was set at an annealing temperature of 60.5°C with an extension time of 30 s for 26 cycles.

[4] = system: HCT116 cells; assay: Trypan blue staining, automated cell counting; design: key to Trypan blue- / Trypan blue+ / avg Trypan blue- / avg Trypan blue+: % of cells (Trypan blue positive or negative); settings: for Dead concentration / Live concentration / Total Concentration / Viability (%): hct mpz, BF
Description: Cells seeded in a 6-well plate were transfected with the specified plasmid for 24 hr and harvested via trypsinization in complete media and ultimately resuspended in 400 μl of media to obtain a concentration of 1.0–3.0 × 10^6 cells/ml. The cell suspension was then mixed 1:1 with 0.4% Trypan blue (Sigma-Aldrich) and incubated at 37°C for 30 min. The percentage of cells staining positive for was then quantified using the Countess II FL Automated Cell Counter (ThermoFisher, catalog # AMQAF1000) default brightfield settings with disposable slides.

[5] = system: DR5; assay: GFP immunoprecipitation: DR5 (FADD, caspase 8) recovered with GFP-tagged protein, Western blot; settings: for fraction of DR5 IP'ed: GFP IP
Description: 15 cm dishes were seeded with 4 million HCT116 cells and allowed to recover for 18 hr prior to transfection. Samples were then transfected for 24 hr with the GFP-tagged ER trafficked protein, cytosolic GFP, or empty vector. To harvest apoptotic and living cells for each sample, all media and washes were collected. Cells were scraped in 2 ml of cold PBS and combined with the media and washes. Samples were centrifuged to pellet cells, washed with 1 ml cold PBS, and flash frozen in liquid N2 prior to lysis.
The cell pellets were resuspended in 750 μl of 30 mM HEPES pH 7.2, 150 mM NaCl, 1% Triton X-100 with 1x Roche protease inhibitor cocktail (if used subsequently for caspase glo 8 assay) or with 5x Roche protease inhibitor cocktail (if used for immunoblotting). The cells were lysed by mechanical shearing through a 25G needle for 13–15 plunges followed by incubation on ice for 30 min. The lysate was centrifuged at 2000xg for 5 min to remove debris and then incubated with 30 μl of GFP-Trap magnetic agarose beads (Chromotek gtma-20) for 4 hr at 4°C. The beads were then washed with 750 μl of lysis buffer for 10 min at 4°C for three rounds.
For Western blots, samples were eluted by adding 35 μl of non-reducing SDS gel loading buffer (50 mM Tris-HCl (pH 6.8), 2% SDS, 0.1% bromophenol blue, 10% glycerol) and incubated for 10 min at 70°C. The beads were then magnetically removed from the eluted sample before adding DTT to a final concentration of 25 mM. The entire sample was loaded onto the gel and immunoblotted for DR5, caspase 8, and GFP, in that order.

[6] = biological replicate 1 (05.22.2019)
[7] = biological replicate 2 (05.24.2019)
[8] = biological replicate 3 (05.24.2019)

B1: pRK CHOP (protein, UniProt P35638 1-169, looked up)
DNA damage-inducible …: MAAESLPFSFGTLSSWELEAWYEDLQEVLSSDENGGTYVSPPGNEEEESKIFTTLDPASLAWLTEEEPEPAEVTSTSQSPHSPDSSQSSLAQEEEEEDQGRTRKRKQSGHSPARAGKQRMKEKEQENERKVAQLAEENERLKQEIERLTREVEATRRALIDRMVNLHQA
modifications: expression plasmid
- avg. fold induction, GADD34 ([1]; HCT116, 62 ng): 1.117
- avg. fold induction, GADD34 ([1]; HCT116, 125 ng): 1.442
- avg. fold induction, GADD34 ([1]; HCT116, 250 ng): 1.579
- avg. fold induction, GADD34 ([1]; HCT116, 500 ng): 2.1696

B2: MPZ-GFP: myelin protein zero with a C-terminal monomeric EGFP, expressed from plasmid (protein)
chain: IVVYTDREVHGAVGSRVTLHCSFWSSEWVSDDISFTWRYQPEGGRDAISIFHYAKGQPYIDEVGTFKERIQWVGDPRWKDGSIVIHNLDYSDNGTFTCDVKNPPDIVGKTSQVTLYVFEKVPTRYGVVLGAVIGGVLGVVLLLLLLFYVVRYCWLRRQAALQRRLSAMEKGKLHKPGKDASKRGRQTPVLYAMLDHSRSTKAVSEKKAKGLGESRKDKK
modifications: left off: monomeric EGFP, C-terminal, kept
notes: myelin protein zero with a C-terminal monomeric EGFP, expressed from plasmid
- caspase 8 activity of ERGIC-associated fractions [2]: harbored the majority of the caspase 8 activity in the cell lysate
- XBP1 mRNA splicing [3]: initiated a few hours post-transfection with MPZ-GFP and later attenuated
- Trypan blue+ ([4]; MPZ-GFP, Rep 1): 47.8261
- Trypan blue- ([4]; MPZ-GFP, Rep 1): 52.1739
- Trypan blue+ ([4]; MPZ-GFP, Rep 2): 36.3817
- Trypan blue- ([4]; MPZ-GFP, Rep 2): 63.6183
- Trypan blue+ ([4]; MPZ-GFP, Rep 3): 29.5129
- Trypan blue- ([4]; MPZ-GFP, Rep 3): 70.4871
- avg Trypan blue+ ([4]; MPZ-GFP, avg of Rep 1-3): 37.9069
- avg Trypan blue- ([4]; MPZ-GFP, avg of Rep 1-3): 62.0931
- Dead concentration [4, 6]: 3.87E+05
- Live concentration [4, 6]: 4.22E+05
- Total Concentration [4, 6]: 8.09E+05
- Viability (%) [4, 6]: 52.1739%
- Dead concentration [4, 7]: 1.07E+06
- Live concentration [4, 7]: 1.88E+06
- Total Concentration [4, 7]: 2.95E+06
- Viability (%) [4, 7]: 63.6183%
- Dead concentration [4, 8]: 1.21E+06
- Live concentration [4, 8]: 2.89E+06
- Total Concentration [4, 8]: 4.09E+06
- Viability (%) [4, 8]: 70.4871%
- fraction of DR5 IP'ed ([5]; run 2018-02-27): 0.1051
- fraction of DR5 IP'ed ([5]; sheet 2019-12-12, replicate 2): 0.0582
- fraction of DR5 IP'ed ([5]; sheet 2019-12-12, replicate 3): 0.1364
- DR5 complex proteins in GFP immunoprecipitates ([5]; HCT116, 24 hr post-transfection): detected DR5, FADD, and caspase 8
- fraction IP'ed ([5]; Rep 1 (first series)): 0.1051
- fraction IP'ed ([5]; Rep 2 (first series)): 0.0582
- fraction IP'ed ([5]; Rep 3 (first series)): 0.1364
- % IP'ed ([5]; average of all replicates): 9.991%
- fraction IP'ed, average ([5]; average of all replicates): 0.09991
- beads (*diluton factor) ([5]; Rep 1 (first series)): 1453332
- beads (*diluton factor) ([5]; Rep 2 (first series)): 11158310
- beads (*diluton factor) ([5]; Rep 3 (first series)): 12501020
- input (*dilution factor) ([5]; Rep 1 (first series)): 13824070
- input (*dilution factor) ([5]; Rep 2 (first series)): 191711370
- input (*dilution factor) ([5]; Rep 3 (first series)): 91647520
- Mean ± SEM (fraction IP'ed) ([5]; unpaired t test sheet, GFP n=5, MPZ n=3, INS n=2, RHO n=2): 0.09991 ± 0.02272, n=3
- 95% confidence interval (difference between means) ([5]; vs. GFP, fraction IP'ed): 0.04255 to 0.1369
- Difference between means ([5]; vs. GFP, fraction IP'ed, ± SEM): 0.0897 ± 0.01927
